Data on one substance can be found in PMC11518995.

By stoichiometry N is commonly meant the number of molecules, sites or subunits per partner or assembly.

The target in this test is mTOR with the cancer-associated 1455-EWED-1458 duplication, as the mTOR subunit of mTORC1_EWEDdup (human) (UniProt P42345). The test can be described thus: cryo-EM structure; mTORC1_EWEDdup co-expressed and purified as a complex; 1 uM with 20 uM 4EBP1 and 1 mM AMPPNP, cross-linked with 0.2 mM BS3 and 0.03% glutaraldehyde, glycerol gradient, Superose 6; 50 mM HEPES pH 7.5, 250 mM NaCl, 5 mM MgCl2, 1 mM TCEP.

With “mTOR with the cancer-associated 1455-EWED-1458 duplication, as the mTOR subunit of mTORC1_EWEDdup, P42345 1-2549”, the stoichiometry N was 2.
